The values below come from patent US10434074B2, “Peptide and small molecule agonists of EPHA and uses thereof” (CASE WESTERN RESERVE UNIVERSITY, priority 2004, dated 2019).

Assay [1] has as its system DU-145 cells. The assay can be described thus: Wound healing assay. The conditions noted are these: 12 hours. It is filed as cell-based, human. As for the experimental part:
(§1) FIGS. 2(A-E) illustrate EphA activation inhibited DU-145 cell migration. (A) Expression of c-Met is elevated in cell lines derived from more malignant prostate cancer. Total cellular proteins were immunoblotted with anti-human c-Met. An anti-tubulin blot was used as a control for protein loading. (B) In a modified Boyden chamber assay, DU-145 cells were placed in the upper chamber and allowed to migrate to the lower chamber containing indicated reagents. After 8 hours, cells were stained with crystal violet and cells remaining in the upper chamber were removed. Top panel: Cells migrated to the undersides of membrane were counted; six high power fields were counted. Results represent means±S.D. Representative fields were shown in the lower panel. (C) Ephrin-A1-Fc inhibits DU-145 cell migration when HGF/SF was uniformly presented in both sides of membranes. The experiment was carried out as described in A. (D) Inhibition of cell scattering by immobilized ephrin-A1 in a SOIL assay (Method). Ephrin-A1-Fc or control Fc was immobilized on 6-well culture dishes. Freshly confluent DU-145 cells on cover slips were transferred to the coated surfaces. Cells were stimulated with HGF/SF to induce migration off the cover slips to immobilized Fc or ephrin-A1-Fc. […] The wound healing was recorded prior to and 12 hours after the addition of Fc, ephrin-A1-Fc (1 μg/ml) and/or HGF/SF (20 ng/ml). […]

The target in assay [2] is T1, EphA2 (Rattus norvegicus, UniProt D3ZBN3).
T1 construct: greatly elevated in MatLu and MatLyLu variants; endogenous in cells; host or cells: MatLyLu (Dunning R-3327 rat prostate cancer subline)
Nature of the assay: EphA2 activation and ERK status in MatLyLu cells. It is filed as cell-based. On the procedure: FIGS. 1(A-D) illustrate (A) EphA2 is the primary EphA kinase expressed on human prostate cancer cells. Cell surface proteins were labeled with membrane impermeable biotin (Method). Top panel: Saturating amount of ephrin-A1-Fc (EA1-Fc) was used to precipitate most EphA kinases. Lower panel: EphA2 was first immunodepleted from cell lysates with an EphA2-specific antibody. Saturating amount of ephrin-A1-Fc was then added to the EphA2-depleted cell lysates to precipitate other members of EphA kinases. The precipitates were subject immunoblot with HRP-labeled avidin. (B) Expression of EphA2, but not other EphA kinases and ephrin-As, is elevated in cell lines derived from more malignant prostate cancer. Total cellular proteins were immunoblotted with the indicated antibodies. (C) Immunofluorescence staining of EphA2. Human prostate cancer cells grown on cover slip were stained with anti-EphA2 antibody. Texas-Red labeled secondary was used to visualize the bound primary antibody. […] To determine the ERK activation status, total cell lysates were analyzed by immunoblot using anti-phospho ERK (p-ERK) antibody. […]
Cells cultured in 6 well plates at 70-80% confluence were stimulated with 0.5 μg/ml Fc, 1 μg/ml epnrinA1-Fc or 20 ng/ml HGF/SF or their combinations as indicated. […] For quantitative analysis, band densities were measured using KODAK 1D imagine analysis software (Eastman Kodak Company).

For assay [3], the system named is primary keratinocytes. Nature of the assay: Clonal growth of primary keratinocytes. The assay is classed as cell-based, mouse. On the procedure: FIGS. 43(A-C) illustrate EphA2 kinase is required for ephrin-A1-induced inhibition of ERK1/2 MAP kinase and growth suppression in primary keratinocytes. A) EphA kinase activation by ephrin-A1 in EphA2^+/+ and EphA2^+/− but not EphA2^−/− keratinocytes. Keratinocytes were isolated from newborn (P1) mice and cultured on matrigel-coated culture plates. They were stimulated with 1.0 μg/ml of ephrin-A1-Fc for 10 min. The unstimulated cells were used as control. EphA receptors including EphA2 were precipitated from the cell lysates using ephrin-A1-Fc, and were subjected to immunoblot analysis with rabbit polyclonal anti-phospho-EphA/B antibody. Membrane was stripped and blotted again for total EphA2. B) Ephrin-A1 stimulation leads to inactivation of ERK1/2 MAPK in EphA2^+/+ and EphA2^+/− but not EphA2^−/− keratinocytes. Total cell lysates were analyzed by immunoblot with the indicated antibodies. The band densities from p-ERK blot were normalized to the corresponding total ERK1 blot. The ratios of p-ERK between ephrin-A1-treated and untreated were shown in the lower panel. C). Ephrin-A1 stimulation inhibits clonal growth of EphA2^+/+ and EphA2^+/− but not EphA2^−/− keratinocytes. Primary keratinocytes were plated on 6-well plates coated with matrigel at 5,000 cells/well, and allowed to grow for 12 days in the presence of Fc (0.5 μg/ml) or ephrin-A1-Fc (1.0 μg/ml).

The subject of assay [4] is integrin-mediated cell adhesion. Nature of the assay: Integrin-mediated cell adhesion to fibronectin. The assay is classed as cell-based.
For assay [5], the system named is DU-145 cells. The assay can be described thus: Scattering onto immobilized ligand (SOIL) assay. The assay is classed as cell-based, human. The conditions noted are these: 48 hours. As for the experimental part:
as §1

T1 sequence (D3ZBN3 1-977): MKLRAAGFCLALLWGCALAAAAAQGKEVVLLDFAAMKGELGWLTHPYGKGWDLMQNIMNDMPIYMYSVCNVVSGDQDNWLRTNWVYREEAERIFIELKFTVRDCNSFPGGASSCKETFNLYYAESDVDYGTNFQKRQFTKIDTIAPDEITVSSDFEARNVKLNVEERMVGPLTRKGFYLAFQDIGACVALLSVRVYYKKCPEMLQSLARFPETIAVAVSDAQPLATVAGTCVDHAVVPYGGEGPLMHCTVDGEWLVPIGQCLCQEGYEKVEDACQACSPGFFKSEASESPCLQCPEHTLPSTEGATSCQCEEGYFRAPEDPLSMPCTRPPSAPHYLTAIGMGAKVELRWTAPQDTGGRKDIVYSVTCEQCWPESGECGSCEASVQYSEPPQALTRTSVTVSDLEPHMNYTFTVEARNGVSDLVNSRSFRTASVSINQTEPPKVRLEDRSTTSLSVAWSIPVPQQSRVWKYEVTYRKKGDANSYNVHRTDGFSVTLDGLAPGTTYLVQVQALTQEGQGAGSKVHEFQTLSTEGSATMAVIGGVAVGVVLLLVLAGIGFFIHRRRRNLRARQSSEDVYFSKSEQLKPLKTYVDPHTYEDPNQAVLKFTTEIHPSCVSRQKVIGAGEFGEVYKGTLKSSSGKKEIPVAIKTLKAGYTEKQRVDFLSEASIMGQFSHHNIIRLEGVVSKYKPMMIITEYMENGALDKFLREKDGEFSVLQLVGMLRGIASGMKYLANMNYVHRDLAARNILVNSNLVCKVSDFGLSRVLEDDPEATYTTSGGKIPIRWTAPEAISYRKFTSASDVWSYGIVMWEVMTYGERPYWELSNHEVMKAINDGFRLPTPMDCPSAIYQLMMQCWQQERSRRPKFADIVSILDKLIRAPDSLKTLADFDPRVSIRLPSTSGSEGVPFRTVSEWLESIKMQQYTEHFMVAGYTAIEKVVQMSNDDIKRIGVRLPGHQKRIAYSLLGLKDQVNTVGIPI

B1: ephrin-A1-Fc: ephrin-A1 dimerized by fusion to the heavy chain of human IgG1 (protein)
chain: DRHTVFWNSSNPKFRNEDYTIHVQLNDYVDIICPHYEDHSVADAAMEQYILYLVEHEEYQLCQPQSKDQVRWQCNRPSAKHGPEKLSEKFQRFTPFTLGKEFKEGHSYYYISKPIHQHEDRCLRLKVTVSGKITHSPQAHDNPQEKRLAADDPEVRVLHSIGHS
modifications: left off: a dimerising Fc or GST
notes: ephrin-A1 dimerized by fusion to the heavy chain of human IgG1
As to B1, the wound closing result in assay [1] (vs Fc) is reported as “slowed down the speed of wound closing”. The “wound closing with HGF/SF” value in assay [1] (vs HGF/SF and Fc) is on record as “the wound closing was also delayed”. Further, in assay [2], the ERK1/2 activity result is “reduced” and the “EphA2 activation, time course” value is “readily occurred in two minutes”. The clonal growth entry in assay [3] (EphA2 knockout keratinocytes) is recorded as “resistant to ephrin-A1-induced growth inhibition”. Moreover, the clonal growth result in assay [3] (wild type and heterozygous, 1.0 μg/ml, 12 days) is “suppressed the growth of wild type and heterozygous keratinocytes”. Further, the “effect of ligand clustering on inhibition of cell adhesion to fibronectin” value in assay [4] is listed as “did not increase the inhibitory effects”. Also, in assay [5], the “HGF/SF-induced cell migration off cover slips” value was “significantly reduced” and the “basal cell migration off cover slips” value is “reduced basal levels of cell migration off cover slips”.
